US20220306746A1 (CHINA MEDICAL UNIVERSITY HOSPITAL, published 2022)

Assays:
[1] = biological target: T1, programmed cell death ligand 1 (PD-L1) on cells (UniProt Q9NZQ7 19-290, limits assumed); assay: flow cytometry on H1975 cells, FITC-labelled nanobody 1 ng/ml [b]
T1 construct: whole, on cells; H1975, A549 and MDA-MB-231 are human tumour cell lines; also called PD-L1 aAPC/CHO-K1 cells
Description: In this example, the procedures of flow cytometric analysis of the anti-PD-L1 nanobody are as follows. The anti-PD-L1 nanobody (1 ng/ml) was pre-stained with FITC fluorescein by Fastlink Fluorescein Labeling Kit (Abnova), the procedures were performed according to the manual instructions. […] After washing with PBS, the cells were analyzed by flow cytometry using FL1 channel.

[2] = biological target: T1, programmed cell death ligand 1 (PD-L1) …; assay: cell-based or functional assay

T1 sequence (Q9NZQ7 19-290 limits assumed): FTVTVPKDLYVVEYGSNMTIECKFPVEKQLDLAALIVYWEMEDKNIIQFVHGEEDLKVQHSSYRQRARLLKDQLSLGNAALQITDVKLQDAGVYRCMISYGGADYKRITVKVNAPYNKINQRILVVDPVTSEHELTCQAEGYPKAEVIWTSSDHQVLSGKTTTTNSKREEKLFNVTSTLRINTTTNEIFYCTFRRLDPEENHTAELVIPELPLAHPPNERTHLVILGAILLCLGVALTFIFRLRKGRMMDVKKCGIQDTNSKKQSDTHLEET

Row | Binder | binding result [1] | EC50 (read off the curve) [2] [µg/mL]
1 | anti-PD-L1 nanobody clone #1 (VHH, Labelled with FITC for flow cytometry; also called PD-L1 nb) VHH: HVQLVESGGGLVQPGGSLRISCAASGFTFSSRAMSWVRQAPGKGLEWVSTINSDGSNTYYSDSVKDRFTISRDNAINTLYLQLNSLKTEDTAMYYCSRCPDIYCGGQYTYRGQGTQVTVSS | binds | –
2 | anti-PD-L1 nanobody clone #67 (VHH) VHH: QVQLVESGGGLVQPGGSLRISCAASGFTFSSRAMSWVRQAPGKGLEWVSTVNSDGSNTYYSDSVKDRFTISRDNAINTLYLQLNSLKTEDTAMYYCSRCPDIYCGGQYTYRGQGTQVTVSS | – | ~3
